{"source": "patent US20160102129A1", "about": "(Novo Nordisk, published 2016)", "binders": {"B1": {"name": "N^ε34-[(4S)-4-carboxy-4-[[(4S)-4-carboxy-4-[[(4S)-4-carboxy-4-[[(4S)-4-carboxy-4-(17-carboxyheptadecanoylamino)butanoyl]amino]butanoyl]amino]butanoyl]amino]buta … (peptide)", "peptide": "[Desaminohistidyl][Aib]HGTFTSDVSKYLEEQAAREFIAWLLK([γGlu-γGlu-γGlu-γGlu-C18 diacid])T-NH2", "SMILES": "CC[C@H](C)[C@H](NC(=O)[C@H](Cc1ccccc1)NC(=O)[C@H](CCC(=O)O)NC(=O)[C@H](CCCNC(=N)N)NC(=O)[C@H](C)NC(=O)[C@H](C)NC(=O)[C@H](CCC(N)=O)NC(=O)[C@H](CCC(=O)O)NC(=O)[C@H](CCC(=O)O)NC(=O)[C@H](CC(C)C)NC(=O)[C@H](Cc1ccc(O)cc1)NC(=O)[C@H](CCCCN)NC(=O)[C@H](CO)NC(=O)[C@@H](NC(=O)[C@H](CC(=O)O)NC(=O)[C@H](CO)NC(=O)[C@@H](NC(=O)[C@H](Cc1ccccc1)NC(=O)[C@@H](NC(=O)CNC(=O)[C@H](Cc1c[nH]cn1)NC(=O)C(C)(C)NC(=O)CCc1c[nH]cn1)[C@@H](C)O)[C@@H](C)O)C(C)C)C(=O)N[C@@H](C)C(=O)N[C@@H](Cc1c[nH]c2ccccc12)C(=O)N[C@@H](CC(C)C)C(=O)N[C@@H](CC(C)C)C(=O)N[C@@H](CCCCNC(=O)CC[C@H](NC(=O)CC[C@H](NC(=O)CC[C@H](NC(=O)CC[C@H](NC(=O)CCCCCCCCCCCCCCCCC(=O)O)C(=O)O)C(=O)O)C(=O)O)C(=O)O)C(=O)N[C@H](C(N)=O)[C@@H](C)O"}, "B2": {"name": "N^ε34-[2-[[(2S)-2-[[(4S)-4-carboxy-4-[[(4S)-4-carboxy-4-(17-carboxyheptadecanoylamino)butanoyl]amino]butanoyl]amino]-3-hydroxypropanoyl]amino]acetyl]-[Imp7,Aib8 … (peptide)", "peptide": "[Desaminohistidyl][Aib]HGTFTSDVSKYLEEQAAREFIAWLLK([Gly-Ser-γGlu-γGlu-C18 diacid])T-NH2", "SMILES": "CC[C@H](C)[C@H](NC(=O)[C@H](Cc1ccccc1)NC(=O)[C@H](CCC(=O)O)NC(=O)[C@H](CCCNC(=N)N)NC(=O)[C@H](C)NC(=O)[C@H](C)NC(=O)[C@H](CCC(N)=O)NC(=O)[C@H](CCC(=O)O)NC(=O)[C@H](CCC(=O)O)NC(=O)[C@H](CC(C)C)NC(=O)[C@H](Cc1ccc(O)cc1)NC(=O)[C@H](CCCCN)NC(=O)[C@H](CO)NC(=O)[C@@H](NC(=O)[C@H](CC(=O)O)NC(=O)[C@H](CO)NC(=O)[C@@H](NC(=O)[C@H](Cc1ccccc1)NC(=O)[C@@H](NC(=O)CNC(=O)[C@H](Cc1c[nH]cn1)NC(=O)C(C)(C)NC(=O)CCc1c[nH]cn1)[C@@H](C)O)[C@@H](C)O)C(C)C)C(=O)N[C@@H](C)C(=O)N[C@@H](Cc1c[nH]c2ccccc12)C(=O)N[C@@H](CC(C)C)C(=O)N[C@@H](CC(C)C)C(=O)N[C@@H](CCCCNC(=O)CNC(=O)[C@H](CO)NC(=O)CC[C@H](NC(=O)CC[C@H](NC(=O)CCCCCCCCCCCCCCCCC(=O)O)C(=O)O)C(=O)O)C(=O)N[C@H](C(N)=O)[C@@H](C)O"}}, "key": {"human GLP-1 receptor [1]": {"molecular_target": "T1, human GLP-1 receptor (human, UniProt P43220 24-463)", "assay": "cell-based or functional assay"}, "human glucagon receptor [2]": {"molecular_target": "T2, human glucagon receptor (human, UniProt P47871 26-477)", "T2 sequence (P47871 26-477)": "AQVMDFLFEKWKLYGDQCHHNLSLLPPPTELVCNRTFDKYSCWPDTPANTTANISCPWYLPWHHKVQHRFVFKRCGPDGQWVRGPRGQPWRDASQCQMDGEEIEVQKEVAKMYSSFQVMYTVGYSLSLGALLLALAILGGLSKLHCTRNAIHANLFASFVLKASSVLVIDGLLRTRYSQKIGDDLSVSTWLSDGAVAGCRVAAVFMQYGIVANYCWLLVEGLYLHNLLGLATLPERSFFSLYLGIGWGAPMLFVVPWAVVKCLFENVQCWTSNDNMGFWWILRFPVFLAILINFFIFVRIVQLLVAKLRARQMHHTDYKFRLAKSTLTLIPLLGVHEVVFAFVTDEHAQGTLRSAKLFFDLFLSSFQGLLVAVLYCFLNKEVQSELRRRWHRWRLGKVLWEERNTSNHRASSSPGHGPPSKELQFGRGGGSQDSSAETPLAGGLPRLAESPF", "assay": "cell-based or functional assay"}, "human GLP-1 receptor [3]": {"molecular_target": "T1, human GLP-1 receptor", "assay": "SPA displacement of [125I]GLP-1(7-36)NH2 from hGLP-1R BHK membranes", "method": "The GLP-1 receptor binding of each derivatives were determined with competitive binding, displacing [¹²⁵I]GLP-1 bound to GLP-1 receptors expressed in cell membranes associated with wheat germ agglutinin (WGA) scintillation proximity assay (SPA) beads. Each derivative was added in a series of concentrations to isolated membranes comprising the human GLP-1 receptor and displacement of the labelled radioligand was monitored. The receptor binding was reported as the concentration at which half of the labelled ligand is displaced from the receptor, the IC⁵⁰ value.\n1. For the receptor binding assay 50 μl of the assay buffer was added to each well of an assay plate. [0588] 2. Test compounds were serially diluted to give the following concentrations: 8×10EE-7 M, 8×10EE-8 M, 8×10EE-9 M, 8×10EE-10 M, 8×10EE-11 M, 8×10EE-12 M and 8×10EE-13 M. Twenty-five μl were added to appropriate wells in the assay plate. [0589] 3. Cell membrane aliquots were thawed and diluted to their working concentration. Fifty μl were added to each well in the assay plate. [0590] 4. WGA SPA beads were suspended in assay buffer at 20 mg/ml. The suspension was diluted to 10 mg/ml in assay buffer just prior to addition to the assay plate. Fifty μl were added to each well in the assay plate. [0591] 5. […] A 25 μl aliquot was reserved for measuring total counts/well. [0592] 6. The assay plate was incubated for 2 h at 30° C. [0593] 7. The assay plate was centrifuged for 10 min. [0594] 8. The assay plate was read in a Perkin Elmer TopCount NXT instrument."}, "human glucagon receptor [4]": {"molecular_target": "T2, human glucagon receptor", "assay": "SPA displacement of [125I]-glucagon from human glucagon receptor BHK membranes", "method": "1. For the receptor binding assay 50 μl of the assay buffer was added to each well of an assay plate. [0603] 2. Test compounds were serially diluted to give the following concentrations: 8×10EE-7 M, 8×10EE-8 M, 8×10EE-9 M, 8×10EE-10 M, 8×10EE-11 M, 8×10EE-12 M and 8×10EE-13 M. Twenty-five μl were added to appropriate wells in the assay plate. [0604] 3. Cell membrane aliquots were thawed and diluted to their working concentration. Fifty μl were added to each well in the assay plate. [0605] 4. WGA SPA beads were suspended in assay buffer at 20 mg/ml. The suspension was diluted to 10 mg/ml in assay buffer just prior to addition to the assay plate. Fifty μl were added to each well in the assay plate. [0606] 5. […] A 25 μl aliquot was reserved for measuring total counts/well. […] 6. The assay plate was incubated for 2 h at 25° C. [0608] 7. The assay plate was centrifuged for 10 min at 1500 rpm. [0609] 8. The assay plate was read in a Perkin Elmer TopCount NXT instrument."}}, "note": "*1 amine or outer side, *2 acyl side, *3 side chain or, on linkers, in order; H or OH if unused. Where no end group is shown, it is not given here. Side-chain parts run from the residue outwards. [ ]: non-standard residue; d: D form. The star is where a group is joined. C20 diacid = O=C(O)CCCCCCCCCCCCCCCCCCC(=O)*; C18 diacid = O=C(O)CCCCCCCCCCCCCCCCC(=O)*; C16 diacid = O=C(O)CCCCCCCCCCCCCCC(=O)*; γGlu = O=C(O)[C@H](CCC(=O)[*:2])N[*:1]; C14 diacid = O=C(O)CCCCCCCCCCCCC(=O)*; Desaminohistidyl = O=C(CCc1c[nH]cn1)*; Ac4c = NC1(C(=O)O)CCC1; AEEA = NCCOCCOCC(=O)O; Aib = CC(C)(N)C(=O)O"}
{"binder": "[Desaminohistidyl][Ac4c]HGTFTSDVSKYLEEQAAREFIAWLLK([Gly-Ser-Glu-Gly-Ser-γGlu-γGlu-C18 diacid])T-NH2", "values": [{"measurement": "EC50 GLP-1R [pM], CRE luciferase reporter gene assay", "setting": "human GLP-1 receptor [1]", "value": 5, "unit": "pM"}, {"measurement": "EC50 GlucagonR [pM], CRE luciferase reporter gene assay", "setting": "human glucagon receptor [2]", "value": 40, "unit": "pM"}, {"measurement": "IC50", "setting": "human GLP-1 receptor [3]", "value": 0.1, "unit": "nM"}, {"measurement": "IC50", "setting": "human glucagon receptor [4]", "value": 4.1, "unit": "nM"}]}
{"binder": "B1", "values": [{"measurement": "EC50 GLP-1R [pM], CRE luciferase reporter gene assay", "setting": "human GLP-1 receptor [1]", "value": 7, "unit": "pM"}, {"measurement": "EC50 GlucagonR [pM], CRE luciferase reporter gene assay", "setting": "human glucagon receptor [2]", "value": 44, "unit": "pM"}, {"measurement": "IC50", "setting": "human GLP-1 receptor [3]", "value": 0.3, "unit": "nM"}, {"measurement": "IC50", "setting": "human glucagon receptor [4]", "value": 4.2, "unit": "nM"}]}
{"binder": "[Desaminohistidyl][Aib]HGTFTSDVSRYLEGRAAREFIAWLLK([γGlu-γGlu-AEEA-γGlu-γGlu-C18 diacid])GSG", "values": [{"measurement": "EC50 GLP-1R [pM], CRE luciferase reporter gene assay", "setting": "human GLP-1 receptor [1]", "value": 6, "unit": "pM"}, {"measurement": "EC50 GlucagonR [pM], CRE luciferase reporter gene assay", "setting": "human glucagon receptor [2]", "value": 158, "unit": "pM"}, {"measurement": "IC50", "setting": "human GLP-1 receptor [3]", "value": 1.7, "unit": "nM"}, {"measurement": "IC50", "setting": "human glucagon receptor [4]", "value": 11.4, "unit": "nM"}]}
{"binder": "[Desaminohistidyl]GHGTFTSDVSRYLEEQAAREFIAWLLK([Gly-Ser-Glu-Gly-Ser-γGlu-γGlu-C18 diacid])T-NH2", "values": [{"measurement": "EC50 GLP-1R [pM], CRE luciferase reporter gene assay", "setting": "human GLP-1 receptor [1]", "value": 8, "unit": "pM"}, {"measurement": "EC50 GlucagonR [pM], CRE luciferase reporter gene assay", "setting": "human glucagon receptor [2]", "value": 459, "unit": "pM"}, {"measurement": "IC50", "setting": "human GLP-1 receptor [3]", "value": 3.2, "unit": "nM"}, {"measurement": "IC50", "setting": "human glucagon receptor [4]", "value": 9.6, "unit": "nM"}]}
{"binder": "[Desaminohistidyl][Aib]HGTFTSDVSKYLEEQAAREFIAWLLK([Ado-Ado-γGlu-γGlu-C20 diacid])T-NH2", "values": [{"measurement": "EC50 GLP-1R [pM], CRE luciferase reporter gene assay", "setting": "human GLP-1 receptor [1]", "value": 62.9, "unit": "pM"}, {"measurement": "EC50 GlucagonR [pM], CRE luciferase reporter gene assay", "setting": "human glucagon receptor [2]", "value": 917, "unit": "pM"}, {"measurement": "IC50", "setting": "human GLP-1 receptor [3]", "value": 0.4, "unit": "nM"}, {"measurement": "IC50", "setting": "human glucagon receptor [4]", "value": 10.1, "unit": "nM"}]}
{"binder": "[Desaminohistidyl][Aib]HGTFTSDVSKYLEEQAAREFIAWLLK([Ado-Ado-γGlu-γGlu-C16 diacid])T-NH2", "values": [{"measurement": "EC50 GLP-1R [pM], CRE luciferase reporter gene assay", "setting": "human GLP-1 receptor [1]", "value": 60.7, "unit": "pM"}, {"measurement": "EC50 GlucagonR [pM], CRE luciferase reporter gene assay", "setting": "human glucagon receptor [2]", "value": 46.1, "unit": "pM"}, {"measurement": "IC50", "setting": "human GLP-1 receptor [3]", "value": 1.3, "unit": "nM"}, {"measurement": "IC50", "setting": "human glucagon receptor [4]", "value": 4, "unit": "nM"}]}
{"binder": "[Desaminohistidyl][Aib]HGTFTSDVSKYLEEQAAREFIAWLLK([Ado-Ado-γGlu-γGlu-C18 diacid])T-NH2", "values": [{"measurement": "EC50 GLP-1R [pM], CRE luciferase reporter gene assay", "setting": "human GLP-1 receptor [1]", "value": 5.2, "unit": "pM"}, {"measurement": "EC50 GlucagonR [pM], CRE luciferase reporter gene assay", "setting": "human glucagon receptor [2]", "value": 120, "unit": "pM"}, {"measurement": "IC50", "setting": "human GLP-1 receptor [3]", "value": 0.5, "unit": "nM"}, {"measurement": "IC50", "setting": "human glucagon receptor [4]", "value": 4.3, "unit": "nM"}]}
{"binder": "B2", "values": [{"measurement": "EC50 GLP-1R [pM], CRE luciferase reporter gene assay", "setting": "human GLP-1 receptor [1]", "value": 7, "unit": "pM"}, {"measurement": "EC50 GlucagonR [pM], CRE luciferase reporter gene assay", "setting": "human glucagon receptor [2]", "value": 45, "unit": "pM"}, {"measurement": "IC50", "setting": "human GLP-1 receptor [3]", "value": 0.2, "unit": "nM"}, {"measurement": "IC50", "setting": "human glucagon receptor [4]", "value": 4.3, "unit": "nM"}]}
{"binder": "[Desaminohistidyl][Aib]HGTFTSDVSKYLEEQAAREFIAWLLK([Ado-Ado-γGlu-γGlu-C14 diacid])T-NH2", "values": [{"measurement": "EC50 GLP-1R [pM], CRE luciferase reporter gene assay", "setting": "human GLP-1 receptor [1]", "value": 12, "unit": "pM"}, {"measurement": "EC50 GlucagonR [pM], CRE luciferase reporter gene assay", "setting": "human glucagon receptor [2]", "value": 52.6, "unit": "pM"}, {"measurement": "IC50", "setting": "human GLP-1 receptor [3]", "value": 1.5, "unit": "nM"}, {"measurement": "IC50", "setting": "human glucagon receptor [4]", "value": 3.7, "unit": "nM"}]}
